From patent publication EP2090664A1 (Universität Konstanz, dated 2009)
No end group written: not given here. *: point of attachment. Biotin = O=C1N[C@H]2[C@H](CS[C@H]2CCCCC(=O)*)N1

B4: human cystatin C (HCC) (other)
chain: SSPGKPPRLVGGPMDASVEEEGVRRALDFAVGEYNKASNDMYHSRALQVVRARKQIVAGVNYFLDVELGRTTCTKTQPNLDNCPFHDQPHLKRKAFCSFQIYAVPWQGTMTLSKSTCQDA
notes: also called intact HCC; complete HCC

Tests used:
N-Cysteinyl-Aβ (1-40) [1] = biological target: T1, N-Cysteinyl-Aβ (1-40) (N-terminal Cys attached via a thioether bond to UltraLink-Iodoacetyl gel); assay: affinity-MS, HCC (93-120) on the immobilized Cys-Aβ (1-40) column
T1 construct: also called Cys-Aβ (1-40); immobilized Cys-Aβ-peptide

human cystatin C (HCC) = biological target: B4; assay: ELISA, biotinylated Aβ-peptides on adsorbed HCC
N-Cysteinyl-Aβ (1-40) [2] = biological target: T1, N-Cysteinyl-Aβ (1-40); assay: summary of affinity-MS, epitope excision and ELISA results
β-amyloid (Aβ) Aβ (1-40) = biological target: T2, β-amyloid (Aβ) Aβ (1-40); assay: affinity-MS, Aβ (1-40) on the HCC micro-column
T2 construct: also called Aβ-peptide

B1: HCC (93-120)-peptide (peptide)
peptide: RKAFCSFQIYAVPWQGTMTLSKSTCQDA
notes: Synthetic peptide; also called synthetic HCC (93-120)-peptide
binding result (N-Cysteinyl-Aβ (1-40) [1]): binds

B2: N-terminal peptide Aβ (1-16) (peptide)
peptide: Biotin-GGGGGDAEFRHDSGYEVHHQK
notes: Biotinylated synthetic peptide of the ELISA series
binding result (human cystatin C (HCC)): no binding

B3: HCC (101-117)-peptide (peptide)
peptide: IYAVPWQGTMTLSKSTC
notes: Synthetic peptide; also called C-terminal HCC peptide
binding result (N-Cysteinyl-Aβ (1-40) [2]): binds

B4
binding result (β-amyloid (Aβ) Aβ (1-40)): binds
